Two molecules from patent US20120058906A1 (published 2012) can be followed below.

The target in assay [1] is T1, rHuman Erythropoietin R/Fc Chimera, CF (R&D Systems Cat#963-ER) (human, UniProt P19235 25-250).
T1 construct: Bought Fc chimera; also called EPO R/Fc; Epo R; Fc part of the bought chimera not given
T1 sequence: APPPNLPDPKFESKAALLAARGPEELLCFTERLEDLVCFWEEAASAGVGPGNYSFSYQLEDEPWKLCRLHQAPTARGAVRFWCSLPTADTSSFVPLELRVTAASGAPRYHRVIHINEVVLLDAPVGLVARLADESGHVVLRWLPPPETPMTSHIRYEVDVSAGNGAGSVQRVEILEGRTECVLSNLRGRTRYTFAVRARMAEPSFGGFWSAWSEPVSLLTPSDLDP
Briefly: ECL (MSD Multi-Spot) binding assay, antigen spotted on plate; Fab 51 nM; blank spot 335.

In assay [2] the target is T2, Recombinant Human DLL4 (R&D Systems Cat#1506-D4/CF) (human, UniProt Q9NR61 27-524).
T2 construct: Bought recombinant protein; also called delta-like protein 4; rHuman DLL4
The description is as above.

The target of assay [3] is T3, rHuman ErbB2/Fc Chimera, CF (R&D Systems Cat#1129-ER) (human, UniProt P04626 23-652).
T3 construct: Bought Fc chimera; also called HER2/neu; human epidermal growth factor 2 receptor; Fc part of the bought chimera not given
The description is as above.

For assay [4], the target named is T4, rHuman EGF R/Fc Chimera, CF (R&D Systems Cat#344-ER) (human, UniProt P00533 25-645).
T4 construct: Bought Fc chimera; also called epidermal growth factor receptor; Fc part of the bought chimera not given
Described as above.

The target of assay [5] is T5, rHuman Notch-1/Fc Chimera, CF (R&D Systems Cat#3647-TK) (human, UniProt P46531 19-526).
T5 construct: Bought Fc chimera; Fc part of the bought chimera not given
The description is as above.

For assay [6], the target named is T6, rHuman CD44/Fc Chimera, CF (R&D Systems Cat#3660-CD) (human, UniProt P16070 21-220).
T6 construct: Bought Fc chimera; Fc part of the bought chimera not given
The description is as above.

In assay [7] the target is T7, rHuman IGF-1 sR (IGF-1 sR), CF (R&D Systems Cat#391-GR) (human, UniProt P08069 31-932).
T7 construct: Bought soluble receptor; also called insulin-like growth factor-1 soluble receptor; IGF-R1
The assay is described as above.

Assay [8] addresses T1, rHuman Erythropoietin R/Fc Chimera, CF …. Briefly: ECL (MSD Multi-Spot) binding assay, antigen spotted on plate; Fab 154 nM; blank spot 447.
Assay [9] addresses T2, Recombinant Human DLL4 (R&D Systems …). The description is as above.
The target of assay [10] is T3, rHuman ErbB2/Fc Chimera, CF (R&D …). The assay is described as above.
In assay [11] the target is T4, rHuman EGF R/Fc Chimera, CF (R&D …). Described as above.
For assay [12], the target named is T5, rHuman Notch-1/Fc Chimera, CF (R&D …). The assay is described as above.
For assay [13], the target named is T6, rHuman CD44/Fc Chimera, CF (R&D Systems …). The assay is described as above.
The target in assay [14] is T7, rHuman IGF-1 sR (IGF-1 sR), CF (R&D …). Described as above.
Assay [15] has as its target T1, rHuman Erythropoietin R/Fc Chimera, CF …. Nature of the assay: ECL (MSD Multi-Spot) binding assay, antigen spotted on plate; Fab 60 nM; blank spot 237.
Assay [16] addresses T2, Recombinant Human DLL4 (R&D Systems …). Described as above.
In assay [17] the target is T5, rHuman Notch-1/Fc Chimera, CF (R&D …). The description is as above.
For assay [18], the target named is T6, rHuman CD44/Fc Chimera, CF (R&D Systems …). Described as above.
For assay [19], the target named is T8, rHuman P-Cadherin/Fc Chimera, CF (R&D Systems Cat#861-PC) (human, UniProt P22223 108-654).
T8 construct: Bought Fc chimera; also called CDH3; Fc part of the bought chimera not given
The assay is described as above.
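Note: blank spot per well as comparator with Hit at signal to blank ratio of 4 or more.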

B1: Fab VH5-51_IGHD5-18*01>3_IGHJ4*01 & V3-4_IGLJ1*01 (Fab, V domains shown)
VH: EVQLVQSGAEVKKPGESLKISCKGSGYSFTSYWIGWVRQMPGKGLEWMGIIYPGDSDTRYSPSFQGQVTISADKSISTAYLQWSSLKASDTAMYYCARRGYSYGYDYFDYWGQGTLVTVSS
VL: QTVVTQEPSFSVSPGGTVTLTCGLSSGSVSTSYYPSWYQQTPGQAPRTLIYSTNTRSSGVPDRFSGSILGNKAALTITGAQADDESDYYCVLYMGSGISYVFGTGTKVTVL
notes: Tested as a Fab made in E. coli; also called IGHV5-51*03
As to B1, the ECL signal turned out to be 750 in [1]; 17000 in assay [2]; 1250 in assay [3]; 816 in assay [4]; 685 in assay [5]; 651 in assay [6]. Also, the ECL signal amounted to 1050 in [7]; 1200 in [8]; 40400 in [9]; 1590 in [10]; 1400 in assay [11]; 929 in [12]. In addition, the figures for the ECL signal in [13] and in assay [14] were 960 and 1400, respectively.

B2: Fab VH6-1_IGHD3-3*01_IGHJ4*01 & V4-3_IGLJ4*01 (Fab, V domains shown)
VH: QVQLQQSGPGLVKPSQTLSLTCAISGDSVSSNSAAWNWIRQSPSRGLEWLGRTYYRSKWYNDYAVSVKSRITINPDTSKNQFSLQLNSVTPEDTAVYYCAREYYDFWSGYYTDYFDYWGQGTLVTVSS
VL: QPVLTQPTSLSASPGASARLTCTLRSGINLGSYRIFWYQQKPESPPRYLLSYYSDSSKHQGSGVPSRFSGSKDASSNAGILVISGLQSEDEADYYCMIWHSSASFVFGGGTQLIIL
notes: Tested as a Fab made in E. coli; also called IGHV6-1*01
For the molecule B2, the ECL signal turned out to be 423 in assay [15]; 875 in assay [16]; 415 in assay [17]; 434 in [18]; 372 in assay [19].
